Test results reported in article PMC3964825 (Biochemistry, 2013).
Several values for one entry are separate records, joined by “and”; a condition that tells them apart may be missing. Equal values may be shown once.

What was measured:
native MS = molecular target: the molecule itself; experiment: native MS
native gel or EMSA = molecular target: the molecule itself; experiment: native gel or EMSA

B1: EZH2-EED heterodimer (FLAG-EZH2–6×HIS-EED) (complex)
chain 1: not shown
chain 2: not shown
Native MS
  stoichiometry N: 2 and 3
Native gel or EMSA
  stoichiometry N: ≤ 4
